Here are results for two molecules from patent US20180207191A1, “HUMAN CANCER MICRO-RNA EXPRESSION PROFILES PREDICTIVE OF CHEMO-RESPONSE” (H. LEE MOFFITT CANCER CENTER AND RESEARCH INSTITUTE, INC., priority 2010, published 2018).

One data set concerns renal cell line 786-0. The following applies: 786-0 renal cell line; publicly available GI50; cited from earlier work.
A further data set deals with renal cell line TK-10. The following applies: TK-10 renal cell line; publicly available GI50; cited from earlier work.
Data set [1] has as its system miR-367. Briefly: Real-time quantitative RT-PCR of miR-367 after transfection, 786-0 cells. It counts as cell-based, human. The conditions noted are these: 50 nM final, QPCR normalized to RNU44. The method, then:
(§1) miR-367 Transfection. Pre-miR-367 and Anti-miR-367 were purchased from Ambion. Log-phase cells (˜60% confluency) were transfected with 6.25 μM Pre-miR-367 or Anti-miR-367 using siPORT NeoFX transfection reagent (Ambion) at a final concentration of 50 nM according to manufacturer's instructions. Controls included transfection of a non-targeting miRNA (Negative Control #1).
(§2) Real-time Quantitative RT-PCR of miRNA. Real-time Quantitative RT-PCR was used to validate successful miRNA transfection. TaqMan®MicroRNA Reverse Transcription kit (Applied Biosystems) was used to convert specific miRNAs to cDNA. RNU44 was used as control for quantification. Per Applied Biosystems' protocol, real-time PCR was performed adding 1.34 μl of each completed RT reaction to target TaqMan microRNA Assay reaction with TaqMan Universal PCR Master Mix (final reaction volume equal 20 μl). Samples (786-0 and TK-10 cell lines transfected with Pre-miR-367 precursor, Anti-miR-367 inhibitor, and Anti-miR-inhibitor Negative Control #1) were evaluated in triplicate and run on the Applied Biosystems 7900HT Fast Real-Time PCR System. Assay data was analyzed using SDS 2.2.2 software.

Data set [2] deals with miR-367. Briefly: Real-time quantitative RT-PCR of miR-367 after transfection, TK-10 cells. In kind it is cell-based, human. The following applies: 50 nM final, QPCR normalized to RNU44. The method, then:
as §1, §2

In another data set the test system is 786-0 cells. Kind of data set: Growth inhibition assay (CellTiter-Glo), topotecan after miR-367 modulation. In kind it is cell-based, human. The following applies: 786-0 cells (topotecan sensitive, high miR-367), topotecan 48 hours, 24 hours after transfection. How it is done: as §1
(§3) Growth inhibition assay. Topotecan, obtained from Sequola Research Products Ltd, was dissolved in DMSO (Sigma) at concentration of 20 mM and stored at −20° C. Cells were seeded in 96-well plates (Nunc) at a density of 5×10^5 cells per ml and incubated overnight at 37° C. Cells were incubated with the indicated concentrations of topotecan for 48 hours and cell viability was analyzed using the CellTiter-Glo™ luminescent cell viability assay kit (Promega). Luminescence was recorded using Wallac Victor^2™ 1420 Multilabel Counter (Perkin Elmer Life Sciences). Wells containing medium without cells were used to obtain background luminescence. All experimental wells and controls were set up in triplet.
(§4) The effects of miR-367 modulation on topotecan-induced cell death and growth arrest were evaluated using the CellTiter-Glo' luminescent cell viability assay (FIG. 2). Twenty-four hours after transfection, cells were subject to 48 hours of topotecan treatment.

The test system of a further data set is TK-10 cells. Described as above. The conditions noted are these: TK-10 cells (topotecan resistant, low miR-367), topotecan 48 hours, 24 hours after transfection. It counts as cell-based, human. The method, then:
as §1, §3, §4

Regarding `CC[C@@]1(O)C(=O)OCc2c1cc1n(c2=O)Cc2cc3c(CN(C)C)c(O)ccc3nc2-1` [Topotecan], the results for the “log10 GI50” value with renal cell line 786-0 and in the data set with renal cell line TK-10 were −7.903 and −5.279, respectively.

B1: Pre-miR-367: precursor of miR-367 purchased from Ambion; exemplified pre-miR367 precursor sequence SEQ ID NO:158 (nucleic acid)
chain: CCAUUACUGUUGCUAAUAUGCAACUCUGUUGAAUAUAAAUUGGAAUUGCACUUUAGCAAUGGUGAUGG
modifications: listed as RNA, chemistry not given here
For the molecule B1, the “miR-367 levels compared to non-targeting miRNA control” value in the data set on miR-367 [1] and in the data set on miR-367 [2] was “increase” throughout. For the same molecule, the “change in sensitivity to topotecan-induced cell death and growth arrest vs non-targeting control” value in the data set on 786-0 cells was “No differences in topotecan sensitivity”; with 786-0 cells (listed as pre-miR-367) it was “increase in topotecan-induced cell death”; in the data set with TK-10 cells, “significantly increased cell death and growth arrest induced by topotecan”; with TK-10 cells (listed as miR-367 precursor), “increased sensitivity to topotecan”; in the data set with TK-10 cells (listed as pre-miR-367) it was “increase in topotecan-induced cell death”; in the data set on TK-10 cells (listed as precursor to miR-367), “significant increase in topotecan-induced cell death and growth arrest”.
